Biological target: BACE1 endogenous to primary cortical neurons from E16.5 CD1 mice (mouse) (UniProt P56818)
Assay: cell-based or functional assay

Chain of BACE1 endogenous to primary cortical neurons from E16.5 CD1 mice (mouse) (P56818 46-501): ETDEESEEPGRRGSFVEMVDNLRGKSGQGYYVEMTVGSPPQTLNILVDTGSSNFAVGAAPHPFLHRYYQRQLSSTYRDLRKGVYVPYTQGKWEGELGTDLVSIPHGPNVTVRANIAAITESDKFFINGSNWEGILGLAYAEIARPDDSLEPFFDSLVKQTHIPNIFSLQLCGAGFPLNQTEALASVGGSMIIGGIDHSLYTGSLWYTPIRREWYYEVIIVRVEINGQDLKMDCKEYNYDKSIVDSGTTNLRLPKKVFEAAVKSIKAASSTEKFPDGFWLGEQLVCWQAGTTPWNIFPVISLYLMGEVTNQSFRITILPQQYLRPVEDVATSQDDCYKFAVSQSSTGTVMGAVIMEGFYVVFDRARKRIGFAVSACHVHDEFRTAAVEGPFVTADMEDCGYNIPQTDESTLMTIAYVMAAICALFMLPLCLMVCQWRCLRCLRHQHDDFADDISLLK

IC50, inhibition of Aβx-40 production in primary mouse cortical neuron cultures (sandwich ELISA of supernatants): 2.9 nM | maximum inhibition of Aβx-40 production in primary mouse cortical neuron cultures: 62%
Substance: antibody YW412.8.31
